Literature values in paper PMC7911819.

Molecular target: calmodulin (Homo sapiens) (UniProt P0DP23)

CyaA 1-370 (from UniProt P0DKX7)
Kd: < 0.1 nM
